Consider 55 molecules from publication PMC12416549 (2024).

Substitutions are numbered along the chain they refer to. In names and notes the source's numbering stands.

T1: TNFR1 (Homo sapiens, UniProt P19438)
T1 chain: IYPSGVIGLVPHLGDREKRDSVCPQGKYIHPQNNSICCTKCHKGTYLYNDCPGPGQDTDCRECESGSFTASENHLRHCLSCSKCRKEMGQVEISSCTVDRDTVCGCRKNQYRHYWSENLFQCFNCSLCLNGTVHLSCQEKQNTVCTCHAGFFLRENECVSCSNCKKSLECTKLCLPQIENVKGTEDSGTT

B1: T97D (designed binder)
chain: SMEEEVEKAAKEYEKKKKEAIEKHLEKLKAKDKEAAERFLKELEEAAKEYAKDEAKTMSEEEAKRRAKKYKEKVLLSELSEEEQKEIKEAEEKLVRDILKYVEEAAK
B2: K88C (designed binder)
chain: B1 chain with K88C, D97T
B3: K100Y (designed binder)
chain: B1 chain with D97T, K100Y
B4: A51I (designed binder)
chain: B1 chain with A51I, D97T
B5: A90H (designed binder)
chain: B1 chain with A90H, D97T
B6: K15A (designed binder)
chain: B1 chain with K15A, D97T
B7: E62S (designed binder)
chain: B1 chain with E62S, D97T
B8: K16H (designed binder)
chain: B1 chain with K16H, D97T
B9: L99R (designed binder)
chain: B1 chain with D97T, L99R
B10: E81I (designed binder)
chain: B1 chain with E81I, D97T
B11: E3I (designed binder)
chain: B1 chain with E3I, D97T
B12: E49K (designed binder)
chain: B1 chain with E49K, D97T
B13: S77T (designed binder)
chain: B1 chain with S77T, D97T
B14: E49I (designed binder)
chain: B1 chain with E49I, D97T
B15: E89A (designed binder)
chain: B1 chain with E89A, D97T
B16: A47G (designed binder)
chain: B1 chain with A47G, D97T
B17: K48N (designed binder)
chain: B1 chain with K48N, D97T
B18: K27A (designed binder)
chain: B1 chain with K27A, D97T
B19: V74N (designed binder)
chain: B1 chain with V74N, D97T
B20: A9L (designed binder)
chain: B1 chain with A9L, D97T
B21: A47M (designed binder)
chain: B1 chain with A47M, D97T
B22: K17L (designed binder)
chain: B1 chain with K17L, D97T
B23: K27F (designed binder)
chain: B1 chain with K27F, D97T
B24: E103S (designed binder)
chain: B1 chain with D97T, E103S
B25: T97A (designed binder)
chain: B1 chain with D97A
B26: D53N (designed binder)
chain: B1 chain with D53N, D97T
B27: L43Q (designed binder)
chain: B1 chain with L43Q, D97T
B28: A46E (designed binder)
chain: B1 chain with A46E, D97T
B29: K88L (designed binder)
chain: B1 chain with K88L, D97T
B30: E62F (designed binder)
chain: B1 chain with E62F, D97T
B31: E61G (designed binder)
chain: B1 chain with E61G, D97T
B32: M58I (designed binder)
chain: B1 chain with M58I, D97T
B33: E14S (designed binder)
chain: B1 chain with E14S, D97T
B34: E104Y (designed binder)
chain: B1 chain with D97T, E104Y
B35: K23E (designed binder)
chain: B1 chain with K23E, D97T
B36: Q84A (designed binder)
chain: B1 chain with Q84A, D97T
B37: A10W (designed binder)
chain: B1 chain with A10W, D97T
B38: M58D (designed binder)
chain: B1 chain with M58D, D97T
B39: E72G (designed binder)
chain: B1 chain with E72G, D97T
B40: E81L (designed binder)
chain: B1 chain with E81L, D97T
B41: Y101Q (designed binder)
chain: B1 chain with D97T, Y101Q
B42: K8W (designed binder)
chain: B1 chain with K8W, D97T
B43: A10K (designed binder)
chain: B1 chain with A10K, D97T
B44: E72Y (designed binder)
chain: B1 chain with E72Y, D97T
B45: K85A (designed binder)
chain: B1 chain with K85A, D97T
B46: K52R (designed binder)
chain: B1 chain with K52R, D97T
B47: A20M (designed binder)
chain: B1 chain with A20M, D97T
B48: A55G (designed binder)
chain: B1 chain with A55G, D97T
B49: E81D (designed binder)
chain: B1 chain with E81D, D97T
B50: L75C (designed binder)
chain: B1 chain with L75C, D97T
B51: E86K (designed binder)
chain: B1 chain with E86K, D97T
B52: K41H (designed binder)
chain: B1 chain with K41H, D97T
B53: K69I (designed binder)
chain: B1 chain with K69I, D97T
B54: L40S (designed binder)
chain: B1 chain with L40S, D97T
B55: K100R (designed binder)
chain: B1 chain with D97T, K100R

For this experiment, the target named is T1, TNFR1. Kind of experiment: yeast display SC50.
On to B1, for which the “apparent Kd (screen)” value turned out to be 0.446 nM.
Under B2 stands 0.446 nM; under B3, 0.869 nM.
Consider B4, for which the “apparent Kd (screen)” value is 12.5 nM.
Under B5 stands 0.446 nM; under B6, 0.956 nM.
For the molecule B7, the “apparent Kd (screen)” value is 0.49 nM.
As for B8, the “apparent Kd (screen)” value worked out at 0.446 nM.
Under B9 stands 12.5 nM.
For the molecule B10, the “apparent Kd (screen)” value was found to be 0.593 nM.
Next, B11: 12.5 nM.
Under B12 stands 10.4 nM; under B13, 2.25 nM; under B14, 20.2 nM.
Turning to B15, the “apparent Kd (screen)” value worked out at 1.4 nM.
With B16, the “apparent Kd (screen)” value is 0.593 nM.
Under B17 stands 0.49 nM; under B18, 0.79 nM.
On to B19, for which the “apparent Kd (screen)” value stood at 16.7 nM.
Under B20 stands 0.956 nM; under B21, 0.446 nM.
Under B22 stands 1.69 nM; under B23, 0.49 nM.
For the molecule B24, the “apparent Kd (screen)” value came out at 0.49 nM.
For the molecule B25, the “apparent Kd (screen)” value came out at 1.86 nM.
For B26, the “apparent Kd (screen)” value turned out to be 0.79 nM.
As to B27, the “apparent Kd (screen)” value was 0.446 nM.
For B28, the “apparent Kd (screen)” value came out at 5.84 nM.
On to B29, for which the “apparent Kd (screen)” value was determined as 0.49 nM.
Consider B30, for which the “apparent Kd (screen)” value is 0.446 nM.
Under B31 stands 1.54 nM.
Under B32 stands 6.43 nM; under B33, 7.07 nM; under B34, 0.653 nM.
Under B35 stands 0.446 nM.
Regarding B36, the “apparent Kd (screen)” value came out at 11.4 nM.
Under B37 stands 3 nM; under B38, 22.2 nM; under B39, 1.54 nM.
Next, B40: 0.653 nM; B41: 1.27 nM.
On to B42, for which the “apparent Kd (screen)” value was found to be 1.54 nM.
Under B43 stands 0.49 nM; under B44, 1.4 nM.
On to B45, for which the “apparent Kd (screen)” value was 0.539 nM.
As to B46, the “apparent Kd (screen)” value was 0.49 nM.
On to B47, for which the “apparent Kd (screen)” value turned out to be 0.446 nM.
For the molecule B48, the “apparent Kd (screen)” value came out at 8.56 nM.
With B49, the “apparent Kd (screen)” value stood at 1.69 nM.
Regarding B50, the “apparent Kd (screen)” value is 0.49 nM.
Under B51 stands 0.593 nM; under B52, 0.593 nM; under B53, 0.446 nM.
Next, B54: 0.446 nM.
As to B55, the “apparent Kd (screen)” value is 1.27 nM.
